Results reported in patent publication US10494415B2, “Insulin-like growth factor 2 (IGF2) binding agents” (Cancer Research Technology Limited, priority 2015, dated 2019).

What was measured:
[1] = test system: Ewing sarcoma cell line (SKNMC); experiment: Synthetic lethality hit validation dose response curves; format: cell-based; conditions: Homo sapiens, SK-N-MC
Protocol: For synthetic lethality hit validation, fresh stocks of the […] drugs selected as hits were obtained (pictilisib, SYNkinase and PF-04691502, Cayman Chemical). The interaction of the selected drugs and IGF2-TRAP were evaluated by Q-value calculated by the formula Q=FD+T/FD+(1−FD)FT, where FD+T represents the fraction affected by treatment with the drug plus IGF2-TRAP compared with the untreated control group, FD represents the fraction affected by the drug alone, and FT represents the fraction affected by the IGF2-TRAP alone. A value of Q>1.15 indicates a synergistic effect, Q<0.85 indicates an antagonistic effect, and Q between 0.85 and 1.15 indicates an additive effect.

IGF2 [2] = target: T1, IGF2 (Homo sapiens, UniProt P01344); conditions: background, literature references; cited from earlier work
T1 sequence (P01344 25-91): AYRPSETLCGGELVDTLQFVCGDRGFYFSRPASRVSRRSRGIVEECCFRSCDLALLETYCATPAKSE

IGF2 [3] = target: T1, IGF2; experiment: SPR (Biacore T200) of recombinant IGF2R domain 11 mutants on immobilised biotinylated IGF2; format: binding; set-up: purchased GroPep
Outline: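 Biotinylated IGF2 (or IGF1) captured on streptavidin chip; domain 11 mutants (E. coli or P. pastoris, AB5 background) injected at 25 °C, 40 μL/min, in HBS-EP pH 7.4 or MES-EP pH 6.5. kon/koff from 1:1 fit; KD as mean of 2-5 repeats.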

[4] = in the presence of Fc-domain 11^AB5-RHH (IGF2-TRAP)

Molecule | Kinetics koff (IGF2 [3]; Table 3, 25° C., HBS-EP pH 7.4) [s⁻¹] | Kinetics kon (IGF2 [3]; Table 3, 25° C., HBS-EP pH 7.4) [M⁻¹ s⁻¹] | other results
COc1ccc(-c2cc3c(C)nc(N)nc3n([C@H]3CC[C@H](OCCO)CC3)c2=O)cn1 [PF-04691502, 2-amino-8-[trans-4-(2-hydroxyethoxy)cyclohexyl]-6-(6-methoxypyridin-3-yl)-4-methylpyrido-[2,3-d]pyrimidin-7(8H)-one] |  |  | IC50 ([1]; drug alone): 420 nM; IC50 [1, 4]: 92 nM
CS(=O)(=O)N1CCN(Cc2cc3nc(-c4cccc5[nH]ncc45)nc(N4CCOCC4)c3s2)CC1 [Pictilisib, 4-[2-(1H-indazol-4-yl)-6-[(4-methylsulfonylpiperazin-1-yl)methyl]thieno[3,2-d]pyrimidin-4-yl]morpholine] |  |  | IC50 ([1]; drug alone): 1100 nM; IC50 [1, 4]: 140 nM
AB5 HI^23D: domain 11 AB5 + HI loop of clone 23D (HFQS) (protein) MKSNEHDDCQVTNPSTGHLFDLSSLSGRAGFTAAYAKGWGVYMSICGENENCPPGVGACFGQTRISVGKANKRLRYVDQVLQLVYKDGSPCPSKSGLSYKSVISFVCRPEAGPTNRPMLISLHFQSCTLFFSWHTPLACEQATECSV | 0.012 |  | 
AB5 P1597S: domain 11 AB5 + P1597S (protein) MKSNEHDDCQVTNPSTGHLFDLSSLSGRAGFTAAYAKGWGVYMSICGENENCPPGVGACFGQTRISVGKANKRLRYVDQVLQLVYKDGSSCPSKSGLSYKSVISFVCRPEAGPTNRPMLISLDKQTCTLFFSWHTPLACEQATECSV | 0.0193 | 5e+06 | 
AB5 P1597Q: domain 11 AB5 + P1597Q (protein) MKSNEHDDCQVTNPSTGHLFDLSSLSGRAGFTAAYAKGWGVYMSICGENENCPPGVGACFGQTRISVGKANKRLRYVDQVLQLVYKDGSQCPSKSGLSYKSVISFVCRPEAGPTNRPMLISLDKQTCTLFFSWHTPLACEQATECSV | 0.0203 | 6.53e+06 | 
AB5 P1597H S1602H: domain 11 AB5 + P1597H, S1602H (protein) MKSNEHDDCQVTNPSTGHLFDLSSLSGRAGFTAAYAKGWGVYMSICGENENCPPGVGACFGQTRISVGKANKRLRYVDQVLQLVYKDGSHCPSKHGLSYKSVISFVCRPEAGPTNRPMLISLDKQTCTLFFSWHTPLACEQATECSV | 0.0046 | 3.5e+06 | Kinetics koff (IGF2 [3]; Table 4, MES-EP pH 6.5): 0.0029 s⁻¹; Kinetics kon (IGF2 [3]; Table 4, MES-EP pH 6.5): 5.32e+06 M⁻¹ s⁻¹
AB5 Q1569R P1597H G1603K: domain 11 AB5 + Q1569R, P1597H, G1603K (protein) MKSNEHDDCQVTNPSTGHLFDLSSLSGRAGFTAAYAKGWGVYMSICGENENCPPGVGACFGRTRISVGKANKRLRYVDQVLQLVYKDGSHCPSKSKLSYKSVISFVCRPEAGPTNRPMLISLDKQTCTLFFSWHTPLACEQATECSV | 0.0058 | 6.67e+06 | Kinetics koff (IGF2 [3]; Table 4, MES-EP pH 6.5): 0.0051 s⁻¹; Kinetics kon (IGF2 [3]; Table 4, MES-EP pH 6.5): 7.54e+06 M⁻¹ s⁻¹
AB5 Q1569R P1597H S1602H G1603K: domain 11 AB5 + Q1569R, P1597H, S1602H, G1603K (protein) MKSNEHDDCQVTNPSTGHLFDLSSLSGRAGFTAAYAKGWGVYMSICGENENCPPGVGACFGRTRISVGKANKRLRYVDQVLQLVYKDGSHCPSKHKLSYKSVISFVCRPEAGPTNRPMLISLDKQTCTLFFSWHTPLACEQATECSV | 0.005 |  | 
WT: wild-type human IGF2R domain 11 (residues 1511-1650), AB loop YSEKGL (protein) MKSNEHDDCQVTNPSTGHLFDLSSLSGRAGFTAAYSEKGLVYMSICGENENCPPGVGACFGQTRISVGKANKRLRYVDQVLQLVYKDGSPCPSKSGLSYKSVISFVCRPEAGPTNRPMLISLDKQTCTLFFSWHTPLACEQATECSV |  |  | Kd (IGF2 [2]): 40 to 60 nM; Kinetics koff (IGF2 [3]; Table 1, 25° C., HBS-EP pH 7.4): 0.23 s⁻¹; Kinetics kon (IGF2 [3]; Table 1, 25° C., HBS-EP pH 7.4): 5e+06 M⁻¹ s⁻¹; Kinetics koff (IGF2 [3]; Table 2): 0.23 s⁻¹; Kinetics kon (IGF2 [3]; Table 2): 5e+06 M⁻¹ s⁻¹; Kinetics koff (IGF2 [3]; Table 4, MES-EP pH 6.5): 0.1441 s⁻¹; Kinetics kon (IGF2 [3]; Table 4, MES-EP pH 6.5): 2.68e+06 M⁻¹ s⁻¹; ΔH of IGF2 interaction (IGF2 [3]; van't Hoff, 10° C. to 30° C.): < 0; −TΔS of IGF2 interaction (IGF2 [3]; van't Hoff, 10° C. to 30° C.): > 0
AB5 P1597N: domain 11 AB5 + P1597N (protein) MKSNEHDDCQVTNPSTGHLFDLSSLSGRAGFTAAYAKGWGVYMSICGENENCPPGVGACFGQTRISVGKANKRLRYVDQVLQLVYKDGSNCPSKSGLSYKSVISFVCRPEAGPTNRPMLISLDKQTCTLFFSWHTPLACEQATECSV | 0.0180 | 4.72e+06 | 
AB5 P1597K S1602H: domain 11 AB5 + P1597K, S1602H (protein) MKSNEHDDCQVTNPSTGHLFDLSSLSGRAGFTAAYAKGWGVYMSICGENENCPPGVGACFGQTRISVGKANKRLRYVDQVLQLVYKDGSKCPSKHGLSYKSVISFVCRPEAGPTNRPMLISLDKQTCTLFFSWHTPLACEQATECSV | 0.0096 | 2.09e+06 | 
AB5 Q1569R P1597K S1602H: domain 11 AB5 + Q1569R, P1597K, S1602H (protein) MKSNEHDDCQVTNPSTGHLFDLSSLSGRAGFTAAYAKGWGVYMSICGENENCPPGVGACFGRTRISVGKANKRLRYVDQVLQLVYKDGSKCPSKHGLSYKSVISFVCRPEAGPTNRPMLISLDKQTCTLFFSWHTPLACEQATECSV | 0.0073 | 7.87e+06 | 

Further lines, with some results ahead:

Kinetics koff (IGF2 [3]; Table 3, 25° C., HBS-EP pH 7.4) [s⁻¹] | Kinetics kon (IGF2 [3]; Table 3, 25° C., HBS-EP pH 7.4) [M⁻¹ s⁻¹] | Molecule | other results
0.044 | 2.76e+06 | AB3: IGF2R domain 11 with AB loop mutations E1544K, K1545S, L1547V (YSKSGV) (protein) MKSNEHDDCQVTNPSTGHLFDLSSLSGRAGFTAAYSKSGVVYMSICGENENCPPGVGACFGQTRISVGKANKRLRYVDQVLQLVYKDGSPCPSKSGLSYKSVISFVCRPEAGPTNRPMLISLDKQTCTLFFSWHTPLACEQATECSV | Kd (IGF2 [2]): 15 nM; Kinetics koff (IGF2 [3]; Table 1, 25° C., HBS-EP pH 7.4): 0.044 s⁻¹; Kinetics kon (IGF2 [3]; Table 1, 25° C., HBS-EP pH 7.4): 2.76e+06 M⁻¹ s⁻¹; Kinetics koff (IGF2 [3]; Table 2): 0.044 s⁻¹; Kinetics kon (IGF2 [3]; Table 2): 2.76e+06 M⁻¹ s⁻¹; Kinetics koff (IGF2 [3]; Table 4, MES-EP pH 6.5): 0.0381 s⁻¹; Kinetics kon (IGF2 [3]; Table 4, MES-EP pH 6.5): 3.43e+06 M⁻¹ s⁻¹
0.0115 | 1.12e+07 | AB5 Q1569R P1597H K1631W: domain 11 AB5 + Q1569R, P1597H, K1631W (protein) MKSNEHDDCQVTNPSTGHLFDLSSLSGRAGFTAAYAKGWGVYMSICGENENCPPGVGACFGRTRISVGKANKRLRYVDQVLQLVYKDGSHCPSKSGLSYKSVISFVCRPEAGPTNRPMLISLDWQTCTLFFSWHTPLACEQATECSV | 
0.008 |  | AB5 Q1569R P1597K S1602H G1603K: domain 11 AB5 + Q1569R, P1597K, S1602H, G1603K (protein) MKSNEHDDCQVTNPSTGHLFDLSSLSGRAGFTAAYAKGWGVYMSICGENENCPPGVGACFGRTRISVGKANKRLRYVDQVLQLVYKDGSKCPSKHKLSYKSVISFVCRPEAGPTNRPMLISLDKQTCTLFFSWHTPLACEQATECSV | 
0.0091 | 9.59e+06 | AB5 Q1569R P1597K: domain 11 AB5 + Q1569R, P1597K (protein) MKSNEHDDCQVTNPSTGHLFDLSSLSGRAGFTAAYAKGWGVYMSICGENENCPPGVGACFGRTRISVGKANKRLRYVDQVLQLVYKDGSKCPSKSGLSYKSVISFVCRPEAGPTNRPMLISLDKQTCTLFFSWHTPLACEQATECSV | 
0.0150 | 4.18e+06 | AB5 P1597L: domain 11 AB5 + P1597L (protein) MKSNEHDDCQVTNPSTGHLFDLSSLSGRAGFTAAYAKGWGVYMSICGENENCPPGVGACFGQTRISVGKANKRLRYVDQVLQLVYKDGSLCPSKSGLSYKSVISFVCRPEAGPTNRPMLISLDKQTCTLFFSWHTPLACEQATECSV | 
0.0058 | 3.2e+06 | AB5 Q1569R P1597H: domain 11 AB5 + Q1569R, P1597H (protein) MKSNEHDDCQVTNPSTGHLFDLSSLSGRAGFTAAYAKGWGVYMSICGENENCPPGVGACFGRTRISVGKANKRLRYVDQVLQLVYKDGSHCPSKSGLSYKSVISFVCRPEAGPTNRPMLISLDKQTCTLFFSWHTPLACEQATECSV | Kinetics koff (IGF2 [3]; Table 4, MES-EP pH 6.5): 0.0034 s⁻¹; Kinetics kon (IGF2 [3]; Table 4, MES-EP pH 6.5): 2.37e+06 M⁻¹ s⁻¹
